The sequences below were run on Escherichia coli TOP10 (assay: shrunken log2 fold change of peptide-encoding DNA abundance (4.5 h post-induction vs induction); higher = less antimicrobial activity (less host growth inhibition)). Details: time post-induction: 4.5 h; library: site-saturation at positions 5, 18, 19, 20.
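Further: peptides expressed intracellularly from a pBAD plasmid library in pooled LB shake-flask culture, induced with 0.3% L-arabinose, DNA abundance read by NGS, three biological replicates, DESeq2 with apeglm shrinkage.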

| Sequence | shrunken log2 fold change |
| --- | --- |
| RRIRIRPPRLPRPRPRPDGNPRP | -0.0425 |
| RRIRIRPPRLPRPRPRPDHAPRP | -0.0379 |
| RRIRIRPPRLPRPRPRPDHHPRP | -1.37 |
| RRIRIRPPRLPRPRPRPDIMPRP | -0.121 |
| RRIRIRPPRLPRPRPRPDIVPRP | -0.906 |
| RRIRIRPPRLPRPRPRPDKKPRP | -0.0638 |
| RRIRIRPPRLPRPRPRPDLQPRP | -0.0567 |
| RRIRIRPPRLPRPRPRPDMYPRP | -0.173 |
| RRIRIRPPRLPRPRPRPDRKPRP | -0.0167 |
| RRIRIRPPRLPRPRPRPDRLPRP | -0.453 |
| RRIRIRPPRLPRPRPRPDRRPRP | -0.274 |
| RRIRIRPPRLPRPRPRPDVDPRP | -0.297 |
| RRIRIRPPRLPRPRPRPDVRPRP | 0.0768 |
| RRIRIRPPRLPRPRPRPDVYPRP | -0.571 |
| RRIRIRPPRLPRPRPRPDWAPRP | -0.0489 |
| RRIRIRPPRLPRPRPRPDWMPRP | -0.131 |
| RRIRIRPPRLPRPRPRPDYDPRP | -0.00137 |
| RRIRIRPPRLPRPRPRPDYIPRP | -0.183 |
| RRIRIRPPRLPRPRPRPDYNPRP | -0.998 |
| RRIRIRPPRLPRPRPRPECAPRP | -0.0969 |
| RRIRIRPPRLPRPRPRPECPPRP | -0.0846 |
| RRIRIRPPRLPRPRPRPECYPRP | -0.146 |
| RRIRIRPPRLPRPRPRPEFFPRP | 0.179 |
| RRIRIRPPRLPRPRPRPEGCPRP | -0.0356 |
| RRIRIRPPRLPRPRPRPEGMPRP | -0.0787 |

| Sequence | shrunken log2 fold change |
| --- | --- |
| RRIRIRPPRLPRPRPRPEHDPRP | -0.523 |
| RRIRIRPPRLPRPRPRPEIYPRP | -4.67e-05 |
| RRIRIRPPRLPRPRPRPEKRPRP | -0.0249 |
| RRIRIRPPRLPRPRPRPEKVPRP | -0.13 |
| RRIRIRPPRLPRPRPRPEKYPRP | -0.423 |
| RRIRIRPPRLPRPRPRPELEPRP | 0.0281 |
| RRIRIRPPRLPRPRPRPENEPRP | -0.428 |
| RRIRIRPPRLPRPRPRPEPMPRP | 0.132 |
| RRIRIRPPRLPRPRPRPEPTPRP | 0.659 |
| RRIRIRPPRLPRPRPRPEQRPRP | -0.0838 |
| RRIRIRPPRLPRPRPRPERTPRP | 0.0643 |
| RRIRIRPPRLPRPRPRPETGPRP | -0.322 |
| RRIRIRPPRLPRPRPRPETKPRP | 0.0233 |
| RRIRIRPPRLPRPRPRPETVPRP | -0.344 |
| RRIRIRPPRLPRPRPRPEVDPRP | -0.0435 |
| RRIRIRPPRLPRPRPRPEWCPRP | 0.0249 |
| RRIRIRPPRLPRPRPRPEWVPRP | 0.00655 |
| RRIRIRPPRLPRPRPRPEYEPRP | -0.0111 |
| RRIRIRPPRLPRPRPRPEYLPRP | 0.0178 |
| RRIRIRPPRLPRPRPRPEYVPRP | -0.196 |
| RRIRIRPPRLPRPRPRPFAEPRP | -0.221 |
| RRIRIRPPRLPRPRPRPFCCPRP | -0.205 |
| RRIRIRPPRLPRPRPRPFCKPRP | -0.893 |
| RRIRIRPPRLPRPRPRPFEIPRP | -0.0373 |
| RRIRIRPPRLPRPRPRPFFFPRP | -0.0692 |

| Sequence | shrunken log2 fold change |
| --- | --- |
| RRIRIRPPRLPRPRPRPFFTPRP | -0.312 |
| RRIRIRPPRLPRPRPRPFIEPRP | -0.848 |
| RRIRIRPPRLPRPRPRPFILPRP | -0.275 |
| RRIRIRPPRLPRPRPRPFKDPRP | -0.0121 |
| RRIRIRPPRLPRPRPRPFLDPRP | -0.888 |
| RRIRIRPPRLPRPRPRPFLKPRP | -0.341 |
| RRIRIRPPRLPRPRPRPFLLPRP | -0.563 |
| RRIRIRPPRLPRPRPRPFMCPRP | -0.103 |
| RRIRIRPPRLPRPRPRPFMEPRP | -0.354 |
| RRIRIRPPRLPRPRPRPFNHPRP | -0.0691 |
| RRIRIRPPRLPRPRPRPFPGPRP | -0.155 |
| RRIRIRPPRLPRPRPRPFPIPRP | 0.0234 |
| RRIRIRPPRLPRPRPRPFQNPRP | -0.296 |
| RRIRIRPPRLPRPRPRPFRDPRP | -0.111 |
| RRIRIRPPRLPRPRPRPFWHPRP | -0.275 |
| RRIRIRPPRLPRPRPRPGCWPRP | 0.312 |
| RRIRIRPPRLPRPRPRPGDGPRP | 0.281 |
| RRIRIRPPRLPRPRPRPGEEPRP | -0.0165 |
| RRIRIRPPRLPRPRPRPGHAPRP | -0.0343 |
| RRIRIRPPRLPRPRPRPGIFPRP | -0.5 |
| RRIRIRPPRLPRPRPRPGIWPRP | -0.015 |
| RRIRIRPPRLPRPRPRPGKFPRP | -0.0679 |
| RRIRIRPPRLPRPRPRPGLHPRP | -0.000332 |
| RRIRIRPPRLPRPRPRPGMIPRP | -0.309 |
| RRIRIRPPRLPRPRPRPGNCPRP | -0.549 |

| Sequence | shrunken log2 fold change |
| --- | --- |
| RRIRIRPPRLPRPRPRPGNWPRP | -0.35 |
| RRIRIRPPRLPRPRPRPGPEPRP | 0.342 |
| RRIRIRPPRLPRPRPRPGQDPRP | -0.165 |
| RRIRIRPPRLPRPRPRPGQEPRP | -0.00674 |
| RRIRIRPPRLPRPRPRPGQSPRP | 0.0669 |
| RRIRIRPPRLPRPRPRPGSFPRP | -0.0206 |
| RRIRIRPPRLPRPRPRPGYLPRP | 2.69 |
| RRIRIRPPRLPRPRPRPGYSPRP | -0.525 |
| RRIRIRPPRLPRPRPRPHAAPRP | -0.298 |
| RRIRIRPPRLPRPRPRPHAGPRP | -0.242 |
| RRIRIRPPRLPRPRPRPHAIPRP | -0.21 |
| RRIRIRPPRLPRPRPRPHAVPRP | -0.12 |
| RRIRIRPPRLPRPRPRPHCLPRP | -0.104 |
| RRIRIRPPRLPRPRPRPHDKPRP | -0.74 |
| RRIRIRPPRLPRPRPRPHEDPRP | -0.182 |
| RRIRIRPPRLPRPRPRPHGMPRP | 0.0429 |
| RRIRIRPPRLPRPRPRPHGSPRP | -0.261 |
| RRIRIRPPRLPRPRPRPHGTPRP | -0.236 |
| RRIRIRPPRLPRPRPRPHIEPRP | -0.0878 |
| RRIRIRPPRLPRPRPRPHIQPRP | -0.791 |
| RRIRIRPPRLPRPRPRPHKGPRP | -0.145 |
| RRIRIRPPRLPRPRPRPHLQPRP | -0.343 |
| RRIRIRPPRLPRPRPRPHLTPRP | -0.379 |
| RRIRIRPPRLPRPRPRPHMDPRP | -0.103 |
| RRIRIRPPRLPRPRPRPHNRPRP | -0.573 |

| Sequence | shrunken log2 fold change |
| --- | --- |
| RRIRIRPPRLPRPRPRPHPCPRP | -0.736 |
| RRIRIRPPRLPRPRPRPHPPPRP | -0.0108 |
| RRIRIRPPRLPRPRPRPHQYPRP | -1.31 |
| RRIRIRPPRLPRPRPRPHSMPRP | -0.382 |
| RRIRIRPPRLPRPRPRPHTEPRP | 0.0578 |
| RRIRIRPPRLPRPRPRPHTLPRP | -0.436 |
| RRIRIRPPRLPRPRPRPHWHPRP | -0.153 |
| RRIRIRPPRLPRPRPRPIDNPRP | -0.0769 |
| RRIRIRPPRLPRPRPRPIEDPRP | 0.0806 |
| RRIRIRPPRLPRPRPRPIELPRP | 0.0658 |
| RRIRIRPPRLPRPRPRPIEQPRP | -0.489 |
| RRIRIRPPRLPRPRPRPIFKPRP | -0.226 |
| RRIRIRPPRLPRPRPRPIGHPRP | -0.0672 |
| RRIRIRPPRLPRPRPRPIGKPRP | -0.13 |
| RRIRIRPPRLPRPRPRPIGTPRP | -0.792 |
| RRIRIRPPRLPRPRPRPIHQPRP | -1.14 |
| RRIRIRPPRLPRPRPRPIIHPRP | -0.667 |
| RRIRIRPPRLPRPRPRPIIVPRP | -0.666 |
| RRIRIRPPRLPRPRPRPIKMPRP | -0.177 |
| RRIRIRPPRLPRPRPRPILRPRP | -0.484 |
| RRIRIRPPRLPRPRPRPIMEPRP | -0.216 |
| RRIRIRPPRLPRPRPRPINDPRP | -0.657 |
| RRIRIRPPRLPRPRPRPINKPRP | -1.11 |
| RRIRIRPPRLPRPRPRPIPQPRP | -0.14 |
| RRIRIRPPRLPRPRPRPIRHPRP | -0.0741 |

| Sequence | shrunken log2 fold change |
| --- | --- |
| RRIRIRPPRLPRPRPRPITDPRP | -0.0192 |
| RRIRIRPPRLPRPRPRPIVPPRP | -0.407 |
| RRIRIRPPRLPRPRPRPIWGPRP | -0.0934 |
| RRIRIRPPRLPRPRPRPIYCPRP | -0.0326 |
| RRIRIRPPRLPRPRPRPKAGPRP | 0.0458 |
| RRIRIRPPRLPRPRPRPKANPRP | -0.103 |
| RRIRIRPPRLPRPRPRPKAWPRP | 0.0719 |
| RRIRIRPPRLPRPRPRPKCIPRP | -0.399 |
| RRIRIRPPRLPRPRPRPKCPPRP | -0.263 |
| RRIRIRPPRLPRPRPRPKCQPRP | -0.00871 |
| RRIRIRPPRLPRPRPRPKDGPRP | -0.105 |
| RRIRIRPPRLPRPRPRPKGTPRP | 0.0146 |
| RRIRIRPPRLPRPRPRPKHDPRP | -0.463 |
| RRIRIRPPRLPRPRPRPKHYPRP | -0.44 |
| RRIRIRPPRLPRPRPRPKKEPRP | -0.438 |
| RRIRIRPPRLPRPRPRPKKSPRP | -0.202 |
| RRIRIRPPRLPRPRPRPKKVPRP | -0.291 |
| RRIRIRPPRLPRPRPRPKLGPRP | -0.217 |
| RRIRIRPPRLPRPRPRPKLLPRP | 0.0419 |
| RRIRIRPPRLPRPRPRPKLVPRP | 0.116 |
| RRIRIRPPRLPRPRPRPKMPPRP | 0.0103 |
| RRIRIRPPRLPRPRPRPKQPPRP | 0.102 |
| RRIRIRPPRLPRPRPRPKREPRP | 0.0342 |
| RRIRIRPPRLPRPRPRPKSKPRP | -0.298 |
| RRIRIRPPRLPRPRPRPKSWPRP | 0.327 |

— the supplement of paper PMC9112550, “Optimization of the antimicrobial peptide Bac7 by deep mutational scanning” (BMC Biology, 2022)
